Measured values reported in patent publication US20230212294A1 (MINGHUI PHARMACEUTICAL SHANGHAI, published 2023).
Changes are numbered by the printed parent chain.

T1: B7-H3 on CHOK cells overexpressing B7-H3
T1 construct: whole, on cells; also called CHO cells that artificially express B7-H3; B7-H3-expressing CHO cells
T1 sequence (Q5ZPR3 whole entry, species assumed, looked up): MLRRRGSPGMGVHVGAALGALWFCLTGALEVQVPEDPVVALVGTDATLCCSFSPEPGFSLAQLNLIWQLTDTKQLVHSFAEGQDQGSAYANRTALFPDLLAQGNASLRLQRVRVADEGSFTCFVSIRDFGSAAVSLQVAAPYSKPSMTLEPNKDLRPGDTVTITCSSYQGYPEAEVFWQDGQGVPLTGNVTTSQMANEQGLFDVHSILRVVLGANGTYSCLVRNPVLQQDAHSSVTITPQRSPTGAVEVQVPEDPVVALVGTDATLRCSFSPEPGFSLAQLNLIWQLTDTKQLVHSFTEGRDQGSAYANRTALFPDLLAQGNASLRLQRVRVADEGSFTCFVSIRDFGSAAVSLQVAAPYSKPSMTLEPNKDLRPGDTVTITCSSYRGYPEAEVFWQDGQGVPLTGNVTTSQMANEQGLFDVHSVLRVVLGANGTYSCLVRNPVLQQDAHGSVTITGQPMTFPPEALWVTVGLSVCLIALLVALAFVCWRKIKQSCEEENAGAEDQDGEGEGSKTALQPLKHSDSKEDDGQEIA

T2: B7-H3 endogenously expressed on human tumor cell lines (human, UniProt Q5ZPR3 29-534)
T2 construct: whole, on cells; The cell line is named in the assay or readout field of each row; also called NCI-H322 cells endogenously expressing B7-H3; B7-H3-positive human tumor cell lines NCI-H1975, BxPC-3, Calu-6
T2 sequence (looked up): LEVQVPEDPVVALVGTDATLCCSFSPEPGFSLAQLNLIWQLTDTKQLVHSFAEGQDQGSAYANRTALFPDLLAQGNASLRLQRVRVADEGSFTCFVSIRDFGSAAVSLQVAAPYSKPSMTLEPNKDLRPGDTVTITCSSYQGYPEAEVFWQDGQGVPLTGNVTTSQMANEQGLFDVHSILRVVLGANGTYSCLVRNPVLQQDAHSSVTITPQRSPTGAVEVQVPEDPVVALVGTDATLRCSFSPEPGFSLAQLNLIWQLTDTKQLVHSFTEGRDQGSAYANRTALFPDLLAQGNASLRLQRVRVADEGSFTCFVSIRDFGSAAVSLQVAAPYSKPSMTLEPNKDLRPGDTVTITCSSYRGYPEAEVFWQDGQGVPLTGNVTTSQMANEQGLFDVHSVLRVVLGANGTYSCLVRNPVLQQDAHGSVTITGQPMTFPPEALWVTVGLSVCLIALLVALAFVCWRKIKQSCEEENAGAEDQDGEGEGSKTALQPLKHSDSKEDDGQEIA

T3: mouse B7-H3-his (mouse, UniProt Q8VE98 29-244, limits assumed)
T3 construct: His-tagged recombinant protein coated on the ELISA plate; not shown: his tag
T3 sequence (looked up): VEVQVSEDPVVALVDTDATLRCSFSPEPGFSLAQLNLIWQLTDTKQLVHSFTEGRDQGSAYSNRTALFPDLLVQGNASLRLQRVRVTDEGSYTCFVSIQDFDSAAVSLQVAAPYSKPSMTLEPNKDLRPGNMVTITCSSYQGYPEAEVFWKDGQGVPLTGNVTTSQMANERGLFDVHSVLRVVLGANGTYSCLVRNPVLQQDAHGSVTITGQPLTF

T4: monkey B7-H3-his (monkey)
T4 chain: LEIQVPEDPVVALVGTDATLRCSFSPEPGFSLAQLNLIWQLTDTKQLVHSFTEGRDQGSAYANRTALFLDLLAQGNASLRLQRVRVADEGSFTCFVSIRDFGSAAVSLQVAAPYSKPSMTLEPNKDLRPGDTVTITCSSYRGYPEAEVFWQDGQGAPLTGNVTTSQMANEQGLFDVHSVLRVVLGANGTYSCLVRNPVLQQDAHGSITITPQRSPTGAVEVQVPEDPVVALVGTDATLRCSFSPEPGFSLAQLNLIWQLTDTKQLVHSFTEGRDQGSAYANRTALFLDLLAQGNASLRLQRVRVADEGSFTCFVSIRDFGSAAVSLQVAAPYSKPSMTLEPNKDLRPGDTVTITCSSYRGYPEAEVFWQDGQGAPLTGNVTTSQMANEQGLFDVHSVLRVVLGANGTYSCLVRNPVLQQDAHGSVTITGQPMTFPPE

B1: IL-P5-C06-H2L3 (antibody, V domains shown)
VH: QVQLVQSGAEVKKPGASVKVSCKGSGYTFTDYAIHWGRQAPGQGLEWIGIINTYNGNSNYAQKFQGRATMTRDTSTSTAYMELSRLRSEDTAVYYCARNYGSSFNWYFDVWGQGTTVTVSS
VL: DIQLTQSPSSLSASVGDRVTITCRASSSISSNYLHWYQQKPGKAPKLLIYSTSNLASGVPSRFSGSGSGTDFTLTISSLQPEDFATYYCQQYSGYPLTFGQGTKLELK
notes: Humanized from IL-P5-C06; full-length antibody; also called ILP5C06huVH2 + ILP5C06huVL3
B2: IL-P5-C06-H2L2 (antibody, V domains shown)
VH: B1 VH
VL: B1 VL with V19I, L79V
notes: Humanized from IL-P5-C06; full-length antibody; also called ILP5C06huVH2 + ILP5C06huVL2
B3: IL-P5-C06-H1L4 (antibody, V domains shown)
VH: B1 VH with G37A, R72V, T74K
VL: B1 VL with L4M, A56Q
notes: Humanized from IL-P5-C06; full-length antibody; also called ILP5C06huVH1 + ILP5C06huVL4
B4: IL-P5-C06-H1L1 (antibody, V domains shown)
VH: B1 VH with G37A, R72V, T74K
VL: B1 VL with L11M, V19I, A44S, F72Y, L79V
notes: Humanized from IL-P5-C06; full-length antibody; also called ILP5C06huVH1 + ILP5C06huVL1
B5: IL-P5-C06-H3L4 (antibody, V domains shown)
VH: B1 VH with G24A, I48M, A68V
VL: B1 VL with L4M, A56Q
notes: Humanized from IL-P5-C06; full-length antibody; also called ILP5C06huVH3 + ILP5C06huVL4
B6: IL-P5-C06-H2L4 (antibody, V domains shown)
VH: B1 VH
VL: B1 VL with L4M, A56Q
notes: Humanized from IL-P5-C06; full-length antibody; also called ILP5C06huVH2 + ILP5C06huVL4
B7: IL-P5-C06-H1L3 (antibody, V domains shown)
VH: B1 VH with G37A, R72V, T74K
VL: B1 VL
notes: Humanized from IL-P5-C06; full-length antibody; also called ILP5C06huVH1 + ILP5C06huVL3
B8: IL-P5-C06-H3L3 (antibody, V domains shown)
VH: B1 VH with G24A, I48M, A68V
VL: B1 VL
notes: Humanized from IL-P5-C06; full-length antibody; also called ILP5C06huVH3 + ILP5C06huVL3
B9: NL24-A68 (antibody, V domains shown)
VH: QVQLVQSGAEVKKPGSSVKVSCKASGGTFSSYAISWVRQAPGQGLEWMGGIIPILGIANYAQKFQGRVTITADKSTSTAYMELSSLRAEDTAVYYCARGGSGRYLPDYWGQGTLVTVSA
VL: EIVLTQSPATLSLSPGERATLSCRASQSVSSYLAWYQQKPGQAPRLLIYDASNRATGIPARFSGSGSGTDFTLTISSLEPEDFAVYYCQQRSNWPPSLTFGGGTKVEIK
notes: Screened from the human source library; full-length antibody; also called NL24A68HC; NL24A68LC
B10: NL24-A10 (antibody, V domains shown)
VH: B9 VH with Q1E, L55F, I57T, K74E, A88S, G100E, S101R, R103S, P106I
VL: B9 VL with S97M, L98Y, G102Q, V106L
notes: Screened from the human source library; full-length antibody; also called NL24A10HC; NL24A10LC
B11: NL24-A17 (antibody, V domains shown)
VH: QVQLVQSGAEVKKPGSSVKVSCKASGGTFSSYAISWVRQAPGQGLEWMGGIIPILGIANYAQKFQGRVTITADESTSTAYMELSSLRSEDTAVYYCARGDSGYDSNYWGQGTLVTVSA
VL: B9 VL with S31T, F83Y, S97L, L98F, G102P, E107D
notes: Screened from the human source library; full-length antibody; also called NL24A17HC; NL24A17LC
B12: IL-P6-B07 (antibody, V domains shown)
VH: EVQLQQSGPELVKPGASVRISCKTSGYTFTEYVIHWVKQNHGGSLEWIGGINRDSGGTTYNQKFQDKVTLTVDKSSNTAYMELRSLTSEDSAVYYCTKWKFPWYFDVWGAGTTVTVSS
VL: DIVLTQSPAIMSASPGEKVTMTCSASSSVSYMHWYQQKSGTSPKRWIYDTSKLASGVPARFSGSGSGTSYSLTISSMEAEDAATYYCQQWSSNPLTFGAGTKLELK
notes: Unhumanized murine variable regions; full-length antibody
B13: IL-P7-C05-H3L1 (antibody, V domains shown)
VH: EVQLVESGGGLVQPGGSLRLSCAASGFTFSSYGMSWVRQAPGKGLELVAAINSNGGSTYYADSVKGRFTISRDNAKNTLYLQMSSLRAEDTAVYYCTRNEEFRRGLAYWGQGTLVTVSS
VL: DIQMTQSPSSLSASVGDRVTITCRASENIYSNLAWYQQKPGKAPKLLVYAATNLADGVPSRFSGSGSGTDYTLTISSLQPEDFATYYCQHFWGTPPWTFGQGTKLEIK
notes: Humanized from IL-P7-C05; full-length antibody; also called ILP7C05huVH3 + ILP7C05huVL1
B14: IL-P7-C05-H1L1 (antibody, V domains shown)
VH: B13 VH with A50T, S57T, A61P, N77H
VL: B13 VL
notes: Humanized from IL-P7-C05; full-length antibody; also called ILP7C05huVH1 + ILP7C05huVL1
B15: IL-P7-C05-H2L2 (antibody, V domains shown)
VH: B13 VH with A50T, S57T
VL: B13 VL with A55Q, D56S
notes: Humanized from IL-P7-C05; full-length antibody; also called ILP7C05huVH2 + ILP7C05huVL2
B16: IL-P7-C05-H4L1 (antibody, V domains shown)
VH: B13 VH with G33A
VL: B13 VL
notes: Humanized from IL-P7-C05; full-length antibody; also called ILP7C05huVH4 + ILP7C05huVL1
B17: IL-P7-C05-H3L3 (antibody, V domains shown)
VH: B13 VH
VL: B13 VL with V48I, T52S, A55Q, D56S
notes: Humanized from IL-P7-C05; full-length antibody; also called ILP7C05huVH3 + ILP7C05huVL3
B18: IL-P7-C05-H2L1 (antibody, V domains shown)
VH: B13 VH with A50T, S57T
VL: B13 VL
notes: Humanized from IL-P7-C05; full-length antibody; also called ILP7C05huVH2 + ILP7C05huVL1

How the values were obtained:
[1] = biological target: T1, B7-H3 on CHOK cells overexpressing B7-H3; assay: flow cytometry on CHOK cells overexpressing B7-H3
Description: (§1) CHOK cells overexpressing B7-H3 or NCI-H322 cells endogenously expressing B7-H3 were added to a round-bottom 96-well plate at 100,000 cells per well, centrifuged to remove the supernatant, and then added with a gradient-diluted anti-B7-H3 antibody and incubated at 4 degrees for 1 h. After incubation, the cells were washed twice with FACS buffer (PBS containing 2% FBS), then added with fluorescent-labeled goat anti-human secondary antibody (Abcam, ab98596) and incubated for 0.5 h. After incubation, the cells were washed twice with FACS buffer, then resuspended with FACS buffer and detected with flow cytometry (Beckman, cytoFlex).

[2] = biological target: T2, B7-H3 endogenously expressed on human …; assay: flow cytometry on NCI-H322 cells
Description: as §1

mouse B7-H3-his = biological target: T3, mouse B7-H3-his; assay: ELISA, antigen coated at 2 µg/mL
Description: (§2) Human B7-H3-his, mouse B7-H3-his and monkey B7-H3-his were diluted to 2 μg/mL with PBS, and added to the ELISA plate at 30 μL per well. The ELISA plate was then incubated in a refrigerator at 4° C. for 16-20 hours. The next day, the ELISA plate was washed once with a lotion (PBS containing 0.05% Tween 20) and then blocked with 5% skim milk powder for 1 hour. After blocking, the ELISA plate was washed once, then added with gradient-diluted anti-B7-H3 antibodies, and incubated at room temperature for 1 h. After incubated, the ELISA plate was washed three times, then added with goat anti-human HRP-labeled secondary antibody, and incubated at room temperature for 1 h. After incubated, the ELISA plate was washed three times, then developed for 5-15 minutes by adding TMB, and finally terminated with 2M sulfuric acid. The data were recorded on the microplate reader.

monkey B7-H3-his = biological target: T4, monkey B7-H3-his; assay: ELISA, antigen coated at 2 µg/mL
Description: as §2

[3] = biological target: T1, B7-H3 on CHOK cells overexpressing B7-H3; assay: cell-based or functional assay

Binder | EC50 [1] | EC50 [2] | EC50 (mouse B7-H3-his) | EC50 (monkey B7-H3-his) | IC50 of CHO endocytosis experiment (toxin-labeled secondary antibody, cell viability) [3]
B1 | 0.826 µg/mL | 0.0618 µg/mL |  |  | 
B2 | 1.12 µg/mL | 0.0919 µg/mL |  |  | 
B3 | 0.596 µg/mL | 0.0436 µg/mL |  |  | 
B4 | 1.05 µg/mL | 0.0895 µg/mL |  |  | 
B5 | 1.13 µg/mL | 0.107 µg/mL |  |  | 
B6 | 0.747 µg/mL | 0.0576 µg/mL |  |  | 
B7 | 0.941 µg/mL | 0.0829 µg/mL |  |  | 
B8 | 1.18 µg/mL | 0.137 µg/mL |  |  | 
B9 |  | 0.0484 µg/mL | 0.205 µg/mL | 0.131 µg/mL | 0.0035 µg/mL
B10 | 0.448 µg/mL | 0.0304 µg/mL | 0.219 µg/mL | 0.124 µg/mL | 
B11 | 0.665 µg/mL | 0.0267 µg/mL | 0.0643 µg/mL | 0.0527 µg/mL | 
B12 |  | 0.249 µg/mL | 1.29 µg/mL | 0.183 µg/mL | 
B13 | 0.454 µg/mL | 0.0109 µg/mL |  |  | 
B14 | 0.426 µg/mL | 0.0107 µg/mL |  |  | 
B15 | 0.455 µg/mL | 0.0145 µg/mL |  |  | 
B16 | 0.468 µg/mL | 0.0138 µg/mL |  |  | 
B17 | 0.431 µg/mL | 0.0106 µg/mL |  |  | 
B18 | 0.426 µg/mL | 0.0144 µg/mL |  |  | 
